Reference: patent US20250115641A1 (published 2025)
Bridge positions count the residues as written; N and C are the ends. Square brackets hold non-standard residues; d marks the D form. Primed or numbered codes have the meaning given here. S5 = C=CCCC[C@](C)(N)C(=O)O; Nle = CCCC[C@H](N)C(=O)O; FITC′ = fluorescein; βAla = NCCC(=O)O

T1: human NLRP3^PYD (residues 3-110, C-terminal 6 x histidine) (human, UniProt Q96P20 3-110)
T1 chain: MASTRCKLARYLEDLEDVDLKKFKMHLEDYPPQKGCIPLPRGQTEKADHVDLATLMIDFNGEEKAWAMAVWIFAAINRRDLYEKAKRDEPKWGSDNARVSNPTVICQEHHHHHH

B1: fSAH-POP1-4 (peptide)
peptide: AEXLKKXKXKLGTV
modifications: N-terminal fluorescein (FITC) on β-alanine; S5 = (S)-2-(4-pentenyl)alanine residues covalently linked (hydrocarbon staple); made on Rink amide resin
B2: fSAH-POP1-10 (peptide)
peptide: AQXLRKXQXKLWTA
modifications: not fully specified; N-terminal fluorescein (FITC) on β-alanine; S5 = (S)-2-(4-pentenyl)alanine residues covalently linked (hydrocarbon staple); norleucine (NL) at the position of M25 of POP1; made on Rink amide resin
B3: fSAH-POP1-6 (peptide)
peptide: XQXLKKXKXKLWTA
modifications: N-terminal fluorescein (FITC) on β-alanine; S5 = (S)-2-(4-pentenyl)alanine residues covalently linked (hydrocarbon staple); made on Rink amide resin
B4: fSAH-POP1-5 (peptide)
peptide: AQXLKKXKXKLGTA
modifications: N-terminal fluorescein (FITC) on β-alanine; S5 = (S)-2-(4-pentenyl)alanine residues covalently linked (hydrocarbon staple); made on Rink amide resin

How the values were obtained:
[1] = biological target: GST-NLRP3PYD; assay: fluorescence anisotropy
[2] = biological target: T2, human N-terminally GST tagged ASC^PYD (human, UniProt Q9ULZ3 1-106); assay: FP
[3] = biological target: T2, human N-terminally GST tagged ASC^PYD; assay: fluorescence anisotropy
[4] = biological target: T1, human NLRP3^PYD (residues 3-110, …); assay: FP

T2 sequence (Q9ULZ3 1-106): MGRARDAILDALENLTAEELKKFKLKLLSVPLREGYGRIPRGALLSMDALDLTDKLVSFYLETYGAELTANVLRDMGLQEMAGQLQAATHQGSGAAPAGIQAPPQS

| Binder | Kd [1] | Kd [2] | Kd [3] | Kd [4] |
| --- | --- | --- | --- | --- |
| {FITC′}-[βAla]Q[S5]LRR[S5]QWKLWTS-NH2 (staple 3-7) [fSAH-POP1-16] | 15 µM |  |  |  |
| B1 | 32 µM | > 10 µM | > 56 µM |  |
| {FITC′}-[βAla]EELKKFK[Nle]KLGTV-NH2 [fPOP1-H2] | 27 µM | > 10 µM | > 56 µM | 9.2 µM |
| {FITC′}-[βAla]Q[S5]LRR[S5]QWKLWTA-NH2 (staple 3-7) [fSAH-POP1-13] | 12 µM |  |  |  |
| {FITC′}-[βAla]Q[S5]LRK[S5]QWKLWTA-NH2 (staple 3-7) [fSAH-POP1-12] | 20 µM | 0.59 µM |  |  |
| B2 | 31 µM |  | > 56 µM |  |
| B3 | 43 µM |  | > 56 µM |  |
| B4 | 30 µM | > 10 µM | > 56 µM |  |
